Results as given in US20240294614A1 (ACADEMY OF MILITARY MEDICAL SCIENCE PLA, published 2024).
Read-outs that look alike come from different tables or passages of the source.

Key:
[1] = biological target: Nipah virus Bangladesh strain glycoprotein G (Nipah virus, Bangladesh strain (NiV-BD))
[2] = biological target: T1, Hendra virus glycoprotein G (Hendra virus (HeV), UniProt O89343 71-604)
T1 sequence: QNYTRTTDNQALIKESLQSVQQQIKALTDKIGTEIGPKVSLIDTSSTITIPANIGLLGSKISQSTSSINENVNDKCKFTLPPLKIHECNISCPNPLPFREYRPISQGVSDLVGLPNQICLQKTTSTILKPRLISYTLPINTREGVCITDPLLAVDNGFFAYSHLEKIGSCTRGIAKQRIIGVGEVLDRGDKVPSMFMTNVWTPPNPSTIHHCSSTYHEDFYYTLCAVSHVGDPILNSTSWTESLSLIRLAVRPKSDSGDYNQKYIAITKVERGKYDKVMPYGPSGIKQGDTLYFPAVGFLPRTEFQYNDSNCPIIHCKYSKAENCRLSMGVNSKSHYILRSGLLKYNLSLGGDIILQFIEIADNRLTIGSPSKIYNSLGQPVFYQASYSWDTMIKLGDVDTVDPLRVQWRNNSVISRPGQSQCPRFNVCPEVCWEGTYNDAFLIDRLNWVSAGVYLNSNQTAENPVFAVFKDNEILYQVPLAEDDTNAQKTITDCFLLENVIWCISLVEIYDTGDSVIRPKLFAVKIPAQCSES

[3] = biological target: T2, Nipah virus Malaysia strain glycoprotein G (Nipah virus, Malaysia strain (NiV-MY), UniProt Q9IH62 71-602)
T2 sequence: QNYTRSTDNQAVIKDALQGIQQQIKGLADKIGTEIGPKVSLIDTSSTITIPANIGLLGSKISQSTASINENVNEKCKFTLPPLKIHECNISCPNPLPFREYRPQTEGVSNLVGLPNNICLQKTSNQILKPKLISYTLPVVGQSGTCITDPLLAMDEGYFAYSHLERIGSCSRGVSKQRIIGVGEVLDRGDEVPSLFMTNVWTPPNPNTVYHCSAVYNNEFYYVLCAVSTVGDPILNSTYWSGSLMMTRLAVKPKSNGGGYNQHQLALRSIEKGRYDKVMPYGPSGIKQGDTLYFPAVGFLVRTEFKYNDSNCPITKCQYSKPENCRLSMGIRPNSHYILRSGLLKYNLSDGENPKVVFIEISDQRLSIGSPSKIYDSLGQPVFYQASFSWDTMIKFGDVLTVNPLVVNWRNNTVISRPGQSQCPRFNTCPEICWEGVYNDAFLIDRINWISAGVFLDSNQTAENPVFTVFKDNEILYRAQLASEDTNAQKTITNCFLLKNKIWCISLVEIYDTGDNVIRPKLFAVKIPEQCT

[4] = biological target: Nipah virus Bangladesh strain glycoprotein G (Nipah virus, Bangladesh strain (NiV-BD)); experiment: cell-based or functional assay
[5] = biological target: T1, Hendra virus glycoprotein G; experiment: ELISA, G protein coated at 1 µg/mL, antibody 1:3 dilutions from 20 µg/mL
[6] = biological target: T2, Nipah virus Malaysia strain …; experiment: as above
[7] = biological target: Nipah virus Bangladesh strain glycoprotein G (Nipah virus, Bangladesh strain (NiV-BD)); experiment: as above
[8] = biological target: Nipah virus Bangladesh strain glycoprotein G (Nipah virus, Bangladesh strain (NiV-BD)); remark: listed apart in the source
[9] = biological target: T1, Hendra virus glycoprotein G; experiment: cell-based or functional assay
[10] = biological target: T2, Nipah virus Malaysia strain …; experiment: cell-based or functional assay
[11] = biological target: T2, Nipah virus Malaysia strain …; remark: listed apart in the source
[12] = biological target: T1, Hendra virus glycoprotein G; remark: listed apart in the source
[13] = biological target: T2, Nipah virus Malaysia strain …; remark: listed apart in the source
[14] = biological target: Nipah virus Bangladesh strain glycoprotein G (Nipah virus, Bangladesh strain (NiV-BD)); remark: listed apart in the source

B1: 1E5 (antibody, V domains shown)
VH: VQLQESGPGVVKPSETLSLTCAVSGGSISDTYRWSWIRQPPGKGLEWIGYIYGSATSTYYNPSLSSRVTISKDMSKNQFSLNLNSVTAADTAVYYCARDYQYYYSGSYPTPHNWFDVWGPGVLVTVSS
VL: DIQMTQSPSSLSASVGDRVTITCRASQGIIDYLSWYQQKPGKAPKLLISTASNLESGVPSRFSGSGSGTEFTLTISSLQPEDFATYSCLQGYTTPYTFGQGTKVEIKT
With B1 the Kd [1] was 0.171 nM, the “IC50 (read off the curve)” value [2] was roughly 0.2 µg/mL and the “IC50 (read off the curve)” value [3] was roughly 0.06 µg/mL. It also gave a percent neutralisation of NiV-BD pseudovirus at 1 µg/mL [4] of 100%, an EC50 [5] of 0.00034 µg/mL and an EC50 [6] of 0.00085 µg/mL. The EC50 [7] was 0.0026 µg/mL, the IC50 (read off the curve) [8] was 0.06 µg/mL and the “IC50, neutralisation of HeV pseudovirus (HIV backbone, luciferase, 293T cells)” value (shortened to “IC50, neutralisation of HeV pseudovirus”) [9] was 0.00574 µg/mL. For the same binder, the “percent neutralisation of HeV pseudovirus at 1 µg/mL” value [9] was roughly 100%, the “percent neutralisation of NiV-MY pseudovirus at 1 µg/mL” value [10] was roughly 100% and the “IC50 (read off the curve)” value [11] was roughly 0.1 µg/mL. For the same binder, the Kd [12] was 0.785 nM, the Kd [13] was less than 0.001 nM and the IC50 (read off the curve) [14] was 0.04 µg/mL.

B2: 1B6 (antibody, V domains shown)
VH: VQLQESGPGPVKPSETLSLTCTVSGGSMSRGYDWNWIRQPPGKGLEWIGYIGDDGGRSNYNPSLKSRVTISKDSSKNQFSLKLGSVSAADTAVYYCARALRAIWYNSGWFYNSLDVWGRGVLVTVSS
VL: DIVLTQSPASLAVSPGQRATITCRASEGVSVFGRDLIHWYQQKPGQPPKLLIYQTSNRDTGVPARFSGSGSGTDFTLTINPVEADDAADYYCLQSKNSYSFGQGTKVEIKT
For B2, the percent neutralisation of NiV-BD pseudovirus at 1 µg/mL [4] was 100%, the EC50 [5] was 0.0529 µg/mL and the EC50 [6] was 0.0639 µg/mL. For the same binder, the EC50 [7] was 0.0284 µg/mL, the “IC50, neutralisation of HeV pseudovirus” value [9] was 0.0163 µg/mL and the “percent neutralisation of HeV pseudovirus at 1 µg/mL” value [9] was roughly 100%. For the same binder, the “percent neutralisation of NiV-MY pseudovirus at 1 µg/mL” value [10] was roughly 100%.

B3: 2A4 (antibody, V domains shown)
VH: QVQLQESGPGLVKPSETLSLTCPVSGASISSHWWTWIRQPPGKGLEWIGEIHGNSGSTNYNPSLKSRVTISKDASKNHFSLKLSSVTAADTAVYYCARDGHLGILVVFATSRFDVWGPGVLVTVSS
VL: DIQMTQSPSSLSASVGDTVTITCQASQGIANNLNWYQQKPGKAPKLLIYRASSLQSGIPSRFSGSGSGTDYTLTISSLQPEDFATYYCQQGYTYPRTFGQGTKVEIKT
With B3 the percent neutralisation of NiV-BD pseudovirus at 1 µg/mL [4] was 100%, the EC50 [5] was 0.00737 µg/mL and the EC50 [6] was 0.0112 µg/mL. For the same binder, the EC50 [7] was 0.0045 µg/mL, the “IC50, neutralisation of HeV pseudovirus” value [9] was 0.029 µg/mL and the “percent neutralisation of HeV pseudovirus at 1 µg/mL” value [9] was roughly 100%. For the same binder, the “percent neutralisation of NiV-MY pseudovirus at 1 µg/mL” value [10] was roughly 100%.

B4: 2E7 (antibody, V domains shown)
VH: VQLQESGPGLVKPSETLSLTCSVSGGSISISNWWSWIRQSPGKGLEWIGYIYGSSGSTLYNPSLKSRVSISTDTSKNQFSLKLRSVTAADTAVYYCASPSIAATGDFDYWGQGVLVTVSS
VL: QSVLTQPPSASGAPGQSVTISCSGSSSNIGGNNVYWYQQLPGTAPKLLIYSSNQRPSGVPDRFSGSKSGTSASLAITGLRSEDEADYFCAVWDDSLGSPFFGGGTRLTVLR
notes: copies: 2 + 2
Work on B4 yielded an EC50 [5] of 0.0701 µg/mL and an EC50 [6] of 0.0267 µg/mL.
